Experimental findings from patent US20240132626A1 are described below.

The target in this test is Soluble human CD137 ECD protein (human) (UniProt Q07011). Nature of the test: SPR, captured via anti-human kappa, soluble ECD injected.
Chain of Soluble human CD137 ECD protein (human) (Q07011 24-186): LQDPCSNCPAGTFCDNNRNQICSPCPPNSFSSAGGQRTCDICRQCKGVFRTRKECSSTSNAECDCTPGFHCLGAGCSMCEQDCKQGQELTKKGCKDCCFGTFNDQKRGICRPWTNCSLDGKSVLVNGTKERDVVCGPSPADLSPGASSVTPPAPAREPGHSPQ

Chain of Urelumab (antibody) (VH): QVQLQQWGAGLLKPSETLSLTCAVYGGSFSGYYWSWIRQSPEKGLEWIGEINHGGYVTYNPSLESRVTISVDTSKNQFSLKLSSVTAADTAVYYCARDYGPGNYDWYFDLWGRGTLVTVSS
Chain of Urelumab (antibody) (VL): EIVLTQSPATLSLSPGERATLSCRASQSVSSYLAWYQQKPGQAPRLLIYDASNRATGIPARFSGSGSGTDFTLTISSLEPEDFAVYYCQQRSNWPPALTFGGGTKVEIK

For Urelumab (antibody), the Kd is 0.011 µM, the koff was found to be 0.0023 s⁻¹ and the kon was 210000 M⁻¹ s⁻¹.
